One may read the Kd as a measure of binding affinity in units of concentration.

The values that follow come from patent US20130259876A1 (Regeneron, published 2013).

Positions count from the first letter of the chain named.

The chains are these.
B1: H4H2490N2 (antibody, V domains shown)
VH: QVQLVQSGADVKWPGASVKVSCRASGYTFTGYYMHWVRQAPGQGLEWMGWINPNNGGTNYAQKFQGRVTMTRDTSITTVYMELSSLISDDTAVYYCARGEDLELRNYYYYGMDVWGQGTSVTVSS
VL: DIQMTQSPSSLSASVGDRVTITCRASQSISSYLNWYQQKPGKAPKLLIYAASNLQSGVPSRFSGSGFGTDFTLTISSLQSEDFATYYCQQTYSTRTFGRGTKVEIK
B2: H4H2564S (antibody, V domains shown)
VH: EVQLVESGGGLVQPGGSLRLSCAASGITFSSFVMNWVRQAPGKGLEWVSVISGSGGSTYYADSVKGRFTISRDNSKNTLYLQMNSLRAEDTAVYYCAKGGLRWFPFDYWGQGTLVTVSS
VL: not shown
B3: H4H2477N2 (antibody, V domains shown)
VH: QVQLQQWGAGLLKPSETLSLTCAVYGGSFSDYYWSWIRQPPGKGLEWIGEINHRGNTNYNPSLKSRVTISVDTSKNQFSLKLRSVTAADMAVYYCARIQLWLRGYDYYGMDVWGQGTTVTVSS
VL: DIQMTQSPSSLSASVGDRVTITCRASQGIRNDLGWYQQKPGKAPKRLIYAASSLQGGVPSRFSGSGSGTEFSLTISSLQPEDFASYYCLQHNTYPWTFGQGTKVEIK
B4: H4H2718N (antibody, V domains shown)
VH: EVQLVESGGGLVQPGRSLRLSCAASGFTFDEYAMHWVRQVPGKGLEWVSGISRNSGTIGYVDSVLGRFTISRDNAKNSLYLQMNSLRPEDTALYYCAKDKGWLLGMDVWGQGTTVTVSS
VL: B3 VL with G28A, G56S, S72A, S85T, H91Y, T93S, P95L, W96Y, V104L
B5: H4H2530S (antibody, V domains shown)
VH: EVQLVESGPGLVKPSQTLSLTCTVSGGSINSGGSYWSWIRQHPGKGLEWIGYIYSSGNTYYKPSLKSRVTISLDTSKNQFSLKMSSVTAADTAIYYCARDPRGITGTHYFDYWGQGTTVTVSS
VL: EIVLTQSPGTLSLSPGERATLSCRTSQSISNKYLAWYQQKPGQAPRLLIYGASTRATGIPDRFSGSGSGTDFTLTISRLEPEDFAVYYCQQFGTSLFTFGPGTKVEIK
B6: H4H2524P (antibody, V domains shown)
VH: QVQLQESGPGLVKPSQTLSLTCTVSGGSISSDGYYWSWIRQHPGKGLEWIGYIYYSGNTYYNPSLKSRVTISVDTSKNHFSLKLSSVTAADTAVYYCTRDPRGITGTHYFDYWGQGTLVTVSS
VL: B5 VL with I29V, N31S, K32S, T54S, E106D
B7: H4H2497N (antibody, V domains shown)
VH: QVQLVESGGGVVQPGRSLRLSCAASGFTFSTYGMDWVRQAPGKGLEWVAVISYDGRNKNYVDSVKGRFTISRDNSKNTLYLQMNSLRAEDSAVYFCAKEGGLGTWYFDLWGRGTLVTVSS
VL: not shown
B8: H4H2480N (antibody, V domains shown)
VH: QVQLQQWGAGLLKPSETLSLTCAVYGGSFSGYYWSWIRQTPGKGLEWIGEISHSGNNNYNPSLKSRVTMSKDTSKNQFSLKLSSVTAADTAVYYCARIQLWLRGNDYYGMDVWGQGITVTVSS
VL: B3 VL with S72T, S85T, T93S

The target in one test is T1, scHLA-B27-mmH (engineered HLA-B*27 ectodomain in-line fusion protein) (human (HLA-B*2705, beta-2 …)).
T1 construct: also called soluble HLA-B*27 fusion protein
Kind of test: SPR (Biacore), mAb captured, 25 C, PBS pH 7.2. Background: Surface plasmon resonance follows binding to a sensor surface in real time, without labels.
In turn, B1 gave a Kd of 239 nM and a t1/2 of 2 min.

B2 registered an equilibrium dissociation constant (Kd) of 8.84 nM and a t1/2 of 20 min.

In turn, B3 registered a Kd of 44 nM and a t1/2 of 20 min.

B4: the Kd worked out at 97.3 nM and the t1/2 worked out at 4 min.

The molecule B5 registered a dissociation constant (Kd) of 0.668 nM and a t1/2 of 43 min.

With B6, the equilibrium dissociation constant (Kd) turned out to be 69 nM and the t1/2 was found to be 1 min.

B7: the Kd worked out at 22.3 nM and the t1/2 amounted to 23 min.

The target in another test is T1, scHLA-B27-mmH (engineered HLA-B*27 …). Kind of test: SPR (Biacore), mAb captured, 25 C, PBS pH 7.2; 25 C, PBS pH 7.2.
For the molecule B8, the t1/2 came out at 18 min.

A further test shares this target. Kind of test: SPR (Biacore), mAb captured, 25 C, HBST pH 7.4.
For the molecule B1, the Kd worked out at 259 nM and the t1/2 is 1 min.

Take B2: binding was characterised by a dissociation constant (Kd) of 3.57 nM and the t1/2 turned out to be 19 min.

As for B3, the Kd came to 16.9 nM and the t1/2 came to 11 min.

For B8, the Kd came out at 24 nM and the t1/2 came out at 9 min.

B4: binding was characterised by a dissociation constant (Kd) of 44.9 nM and the t1/2 was 4 min.

Consider B5, for which the affinity, expressed as Kd, was 1.22 nM and the t1/2 was determined as 16 min.

On to B6, for which the dissociation constant (Kd) is 23.9 nM and the t1/2 was 2 min.

The molecule B7 came in with a Kd of 33.6 nM and a t1/2 of 12 min.

A further test has the same target. Kind of test: SPR (Biacore), 25 C, PBS pH 7.2.
B1 came in with a dissociation constant Kd of 239 nM.

Take B2: binding was characterised by a dissociation constant (Kd) of 8.84 nM.

On to B3, for which binding was put at a Kd of 44 nM.

In the case of B4, binding was put at a Kd of 97.3 nM. This Kd is about […]-fold higher than that of the molecule before.

Take B5: the Kd was 0.668 nM.

On to B6, for which binding was put at a Kd of 69 nM.

Turning to B7, the dissociation constant Kd was 22.3 nM.

A further test has the same target. Kind of test: SPR (Biacore), mAb captured, 25 C, PBS pH 5.75.
Molecule B1 had an equilibrium dissociation constant (Kd) of 237 nM and a t1/2 of 2 min.

Consider B2, for which binding was characterised by a dissociation constant (Kd) of 74.8 nM and the t1/2 stood at 3 min.

Molecule B3 yielded a Kd of 160 nM and a t1/2 of 5 min.

For B8, the equilibrium dissociation constant (Kd) came to 129 nM and the t1/2 was 5 min.

With B4, the equilibrium dissociation constant (Kd) was found to be 97.5 nM and the t1/2 came to 4 min.

B5 came in with an equilibrium dissociation constant (Kd) of 10.7 nM and a t1/2 of 15 min.

Consider B6, for which the equilibrium dissociation constant (Kd) came out at 204 nM and the t1/2 turned out to be 2 min.

Molecule B7 returned a Kd of 33.9 nM and a t1/2 of 12 min.

For a further test the target is unchanged. Kind of test: SPR (Biacore), mAb captured, 37 C, HBST pH 7.4.
In the case of B1, the Kd amounted to 360 nM and the t1/2 was 1 min.

The molecule B2 had a Kd of 7.17 nM and a t1/2 of 9 min.

As to B3, the affinity, expressed as Kd, was 47 nM and the t1/2 was found to be 3 min.

Turning to B4, the equilibrium dissociation constant (Kd) turned out to be 29 nM and the t1/2 is 3 min.

B5 showed a Kd of 1.88 nM and a t1/2 of 6 min.

Molecule B6 displayed an equilibrium dissociation constant (Kd) of 26.8 nM and a t1/2 of 2 min.

B7 returned a Kd of 337 nM and a t1/2 of 3 min.

Another test shares this target. Kind of test: SPR (Biacore), 25 C, PBS pH 5.75.
B1 displayed a Kd of 237 nM. This counts as sub-micromolar.

For B2, the Kd is 74.8 nM.

B3 registered a Kd of 160 nM.

On to B8, for which the equilibrium dissociation constant (Kd) is 129 nM.

Molecule B4 gave a Kd of 97.5 nM.

Turning to B5, the Kd came to 10.7 nM.

The molecule B6 yielded a Kd of 204 nM.

Molecule B7 gave an equilibrium dissociation constant (Kd) of 33.9 nM.
